In the nanobody polyreactivity screen of Harvey et al. (2022):

Assay: yeast display, Sf9 membrane polyspecificity reagent, FACS + sequencing; frameworks hold sequencing errors
Outline: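 In a synthetic yeast display library (Saccharomyces cerevisiae BJ5465), nanobody expression was induced with galactose for 36–48 hours. FACS gates were set low and high (top ~1%) using anti-HA fluorescence for expression and streptavidin fluorescence for binding of the Sf9 membrane reagent. Each polyreactivity label is drawn from the gate of origin.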

| Sequence | polyreactivity (PSR sort gate) |
| --- | --- |
| QVQLVESGGGLVQAGGSLRLSSAASGSTFYKYAMGWNRQTPGKERELVAPITGNSGSTYYADSVKGRFTISRDNAKNTVYLQMNSLKPEDTAVYYCAAARPRVWAFNYWGQGTQVTVSS | low polyreactivity |
| QVQLVESGGGLVQAGGSLRLSSAASGSTFYYNTMGWSRQAPGKERELVAAISSSGGTTYYADSVKGRFTISRDNAKNTVYLQMNSLKPEDTAVYYCNVATIWYSYARGYGYWGQGTQVTVSS | high polyreactivity |
| QVQLVESGGGLVQAGGSLRLSSAASGSTIGYYAMRWYRQAPGKERELVAAISWSGGSTYYADSVKGRFTISRDNAKNTVYLQMNSLKPEDTAVYYCAADTYPDYYLVEYYYWGQGTQVTVSS | low polyreactivity |
| QVQLVESGGGLVQAGGSLRLSSAASGSTLRRYAMGWYRQAPGKERELVAAISGSGDSTYYADSVKGRFTISRDNAKNTVYLQMNSLKPEDTAVYYCNAVYAFNGYDYWGQGTQVTVSS | low polyreactivity |
| QVQLVESGGGLVQAGGSLRLSSAASGSTSYYYVMGWYRQAPGKERELVAAISNGDTTNYADSVKGRITITRDNEKNTVYLQMNSLKPEVTAVDYCAAVYYRSFHDYGYWGQGTQVTVSS | low polyreactivity |
| QVQLVESGGGLVQAGGSLRLSSAASGTIFRSYSMGWSRQAPGKERELVASITWRGGRTYYADSVKGRFTISRDNAKNTVYLQMNSLKPEDTAVDFCAVLWTPAGGYYFRYDYWGQGTQVTVSS | low polyreactivity |
| QVQLVESGGGLVQAGGSLRLSSAASGYIFDWNAMGWYRQAPGKERELVAAISSGGRTNYADSVKGRFTISRDNAKNTVYLQMNSLKPEDTAVYYCAAVYTDPYVEYDYWGQGTQVTVSS | low polyreactivity |
| QVQLVESGGGLVQAGGSLRLSSAAYGRTFRPYAMGWYRQAPGKERELVAAIDSSGTSTYYADSVKGRFTISLDNAKNTVYLQMNSLKPEDTAVYYCAAGSDPTGRRYDYWGQGTQVTVSS | low polyreactivity |
| QVQLVESGGGLVQAGGSLRLSSAGSGSPFRSNAMGWYRQAPGKERELVAAISQRGGSTYYADSVKGRFTISRDNAKNPVYLQMNSLKAVDTAVYYCAKVSKRVGFPTAMNYWGQGTQVTVSS | high polyreactivity |
| QVQLVESGGGLVQAGGSLRLSSASSGFIFRGNAMVWSRQAPGKERELVAAISWSGGNTYYADSVKGRFTISRDYAKNTVYLQMNSMIPEDTAVYYCNGVKAYYRWFLPRYQYNFWGQGTQVTVSS | high polyreactivity |
| QVQLVESGGGLVQAGGSLRLSSASSGFTFTFYAMGWYRQEPGKERELVAAISKGGGSTSYADSVKGRFTISRDNAKNTVYLQMNCLKPEETAVYYCAARYYYSRSRLYYYWGQGTQVTVSS | high polyreactivity |
| QVQLVESGGGLVQAGGSLRLSSASSGSIFESNALGWYRQAPGKEREFVAAIDQNDGSTNYADSVKGRFTISRDNAKNTVYLQMYSLNPEDTAVYYCAASPGTASYDYWGQGTQVTVSS | low polyreactivity |
| QVQLVESGGGLVQAGGSLRLSSDASGRIFRYYSMGWYRQAPGKERELVAAITRGGYTNYADSVKGRFTISRDNAKITVYFQMNSLKQEDTAVYYCATRQSWYPRWMDYWGQGTQVTVSS | high polyreactivity |
| QVQLVESGGGLVQAGGSLRLSSPASGSTYVVYAMGWYRPAPGKERELVADITRSGGSTYYADSVKGRFTISRDNAKNTVYLQMNSLKPEDSAVYYCAAVRRNGPYKYYYWGQGTQVTVSS | high polyreactivity |
| QVQLVESGGGLVQAGGSLRLSSSASGGTFWDYAMGCYRQAPGKERELVAAINWSGDSTYADSVKGRFTISRDNAKNTCYLQMTSLKPEDTAVYYCNADVWYYRMDYWGQGTQVTVSS | low polyreactivity |
| QVQLVESGGGLVQAGGSLRLSWAAAGFIFYYNAMGRYRQAPGKERELVAAIDESGGSTYYADSVKGRFTISRDNATNTVYLQLNSLKPEDSAVYYCDTDDTWSISYGWYWFTYEYWGQGTQVTVSS | low polyreactivity |
| QVQLVESGGGLVQAGGSLRLSWAASGFTFYRYAMGWYRQAPGKERELVAAITRSGSRTYYADSVKGRFTISRDNAKNTVYVQMNSLKPEDTAVYYCNTDGGDHPTARYGYWGQGTQVTVSS | high polyreactivity |
| QVQLVESGGGLVQAGGSLRLSWAASGIILQEYTMGWYRPAHWKERELVAAISVRGGSTYYADSVKGRFTISRDHAKNTVYLQMNSLKPEDTAVYYCAAAYYRRPPGFNYWGQGTEVTVSS | high polyreactivity |
| QVQLVESGGGLVQAGGSLRLSWAASGRTIVYYAMGWYSQAPGKEREFVAAISRSGGRTSYADSVKGRFTISRDNAKNTVYLHMNILKPDDTAVYYCAAEKRTQPTSREYYWGKGTQVTVSS | high polyreactivity |
| QVQLVESGGGLVQAGGSLRLSWAASGSIFFLYAMGWYRQAPAKERELVAAITSIGGSTYADSVKGRFTISRDNAKNTVYLQMNSLKPEDTAVYYCNTDEYPLTVQVQYYYWGQGTEVTVSS | low polyreactivity |
| QVQLVESGGGLVQAGGSLRLSWAASGSIFGWYGMGWYSPAPGKERELVAAITRGGSTYYADSVKGRFTISRDNAKNTVYLQMNSLKPEDTAGYYCAKRSGQQYGGYGYWGQGTQVTVSS | low polyreactivity |
| QVQLVESGGGLVQAGGSLRLSWAASGSNFDAYAMGWYRPAPGKERELVAAINARGGSTYYADSVKGRFTISRDNAKNTVYLQMNSLKPEETAVYDCNRLSRVRRYIYDYWGQGTQVTVSS | high polyreactivity |

| Sequence | polyreactivity (PSR sort gate) |
| --- | --- |
| QVQLVESGGGLVQAGGSLRLSWAAYGRIFLTNAMGWYRQAPGKERELVAAITSGGSTYYADSVKGRFTISRDNAKNTVYLQMNSLKPEDTAVYYCKADTDRYWPYEYDYWGQGTQVTVSS | low polyreactivity |
| QVQLVESGGGLVQAGGSLRLSWAAYGRTILWYTMGWYRQAPGKERDLVADISSSGGTTFYADSVKGRFTISRDNAKNTVYLQMNSLKAVDNAVYYCKRNARKLRTVHSSVVGLDYWGQGTQVTVSS | low polyreactivity |
| QVQLVESGGGLVQAGGSLRLTCAASALTFVWYAMGWYRQATGKERELVAAIRGGGSTYYADSVKGRFTISRDNAKNTVYLQMNRLIPEDTAVYYCAAQRSPYYTFYYWGQGTQVTVSS | high polyreactivity |
| QVQLVESGGGLVQAGGSLRLTCAASARTFFGYAMGWYRQAHGKARELVARIRWSTTYYADSVKGRFTISRDNAKNTVYLQMNSLKPEDTAVYYCNAVYYYVGYRYDYWGQGTQVTVSS | high polyreactivity |
| QVQLVESGGGLVQAGGSLRLTCAASGFIFAHYAMGWYRQAPGKERELVAAISSRGGSTYYADSVKGRFTISRDNAKNTVYLQMNSLKPEDTAVYYCAKARHRPARGYEYWGQGTQVTVSS | high polyreactivity |
| QVQLVESGGGLVQAGGSLRLTCAASGFIFGSYSMGWYRQAPGKERELVAAITSGGSTYYADSVKGRFTISRDNAKNTVYLQMNSLKPEDTAVYYCAKYHWRLSFSRYPYDYWGQGTQVTVSS | high polyreactivity |
| QVQLVESGGGLVQAGGSLRLTCAASGFIFNFYAMGWYRQAPGKERELVAAISRNGGSTYYADSVKGRFTISRDNAKNTVYLQMNSLKPEDTAVYYCNAGGSYGDFGYWGKGTQVTVSS | high polyreactivity |
| QVQLVESGGGLVQAGGSLRLTCAASGFTFDRYAMGWYRQAPGKEREVVAAISRSGTSTYYADSVKGRFTISRDNAKNTVYLQMNSLKPEDTAVYYCATRYNVYFPSRRYQYDYWGQGSQVTVSS | high polyreactivity |
| QVQLVESGGGLVQAGGSLRLTCAASGFTFRYYAMGWSRQAPGKERELVATISTGSGVSTYYADSVKGRFTISRDNAKNTVYLQMNSLKPEDTAVYYCAAVFGWRRYVTYDYWGQGTQVTVSS | low polyreactivity |
| QVQLVESGGGLVQAGGSLRLTCAASGGTFIKNAMGWYRQAPGKERELVAAISWSGGRTYYADSVKGRFTITRDNPKNTVYLPMNSLKPEDTAVYYCNARYAGRLSYSYEYWGQVTQVTVSS | high polyreactivity |
| QVQLVESGGGLVQAGGSLRLTCAASGIIFCDYVMGWYRQEPGKESELVAAISASGGRTYYADSVKGRFTISRDNAKNTVYLQMTSLKPEDTAVYYCNKRYRNRYSYSEGDYWGQGTQLTVSS | high polyreactivity |
| QVQLVESGGGLVQAGGSLRLTCAASGIIFDDYAMGWYRQAPGKERELVAAISWIGTTTYYADSVKGRFTISRDNAKKTVYFQMNILKPEDTAVYYCNARPYPSYKYDYWGQGTQVTVSS | high polyreactivity |
| QVQLVESGGGLVQAGGSLRLTCAASGIIFFKNAMGWYRQAPGKERELVASINRSGGSTYYADSVKGRFTISRDNAKNTGYFQMNSLKPEDTAVFYCNARLTLRSYDYWGLGTQVTVSS | low polyreactivity |
| QVQLVESGGGLVQAGGSLRLTCAASGIIFGHYAMGWYRQAPGKERELVAAITASSGNTYYADSVKGRFTISRDNAKNTVYLQMNSLKPEDTAVYYCAAVSYSSYRYDYWGQGTQVTVSS | high polyreactivity |
| QVQLVESGGGLVQAGGSLRLTCAASGIIFYGYAIGWYRQAPGKERQLVAAISSGGGTNYADSVKGRFTISRDNAKNTVYLQMNSLKPEDTAVYYCAARQYRRVKQGNYWGQGTQVTLSS | high polyreactivity |
| QVQLVESGGGLVQAGGSLRLTCAASGIIFYIYAMGWYRQAPGKERELVAGISWRGGSTSYADSVKGRFTISRDNAKNTVYLQMNSLKPEDTAVYYCAAEVYSWDGYDYWGQGTQVTVSS | low polyreactivity |
| QVQLVESGGGLVQAGGSLRLTCAASGITFQYYVMGWYRHAPGKERELVAAITRRGGSTYYADSVKGRFTISRDNAKNTVYLQMNSLKPEDTAVYYCAAAITYLPAYRYNYWGQGTQVTVSS | high polyreactivity |
| QVQLVESGGGLVQAGGSLRLTCAASGLIFAENAMGWYRQAPGKERELVASITKSGGRTYYADSVKGRFTISRDNAKNTVYLQMNSLKPEDTAVYDCAAISYFPLRTRYERWFYYWGQGTQVTVSS | high polyreactivity |
| QVQLVESGGGLVQAGGSLRLTCAASGLTFFYYAMGWYRQAPGKERELVAGISRSGGSTYYADSVKGRFTISRDYAKNTVYLQMNSLKPEDTAVYYCAKRTLVASYIYREGEYWGQGTQVTVSS | high polyreactivity |
| QVQLVESGGGLVQAGGSLRLTCAASGLTFPVYAKGWYRQAPGKEREFVAAISYSAGRTYYADSVKGRFTISRDNAKNTVYLQMNRLKPEDTAVYYCAAATYYSIYDYWGQGTQVTVSS | high polyreactivity |
| QVQLVESGGGLVQAGGSLRLTCAASGLTFYYYAMGRYRQATGKETELVASISTGGKKYYADSVKGRFTISRDNANNTVYLQMNSLKPEDTAVYYCAADRYDSSQFYYWGQGTQLTVSS | low polyreactivity |
